Numbering of substitutions follows the chain as printed. Names may count otherwise. “Also recorded” adds a separate entry of the source.
B1: Gerbera DFR: wild type Gerbera dihydroflavonol 4-reductase (SEQ ID NO: 2) (protein)
chain: MEEDSPATVCVTGAAGFIGSWLVMRLLERGYVVHATVRDPGDLKKVKHLLELPKAQTNLKLWKADLTQEGSFDEAIQGCHGVFHLATPMDFESKDPENEIIKPTIEGVLSIIRSCVKAKTVKKLVFTSSAGTVNGQEKQLHVYDESHWSDLDFIYSKKMTAWMYFVSKTLAEKAAWDATKGNNISFISIIPTLVVGPFITSTFPPSLVTALSLITGNEAHYSIIKQGQYVHLDDLCECHIYLYENPKAKGRYICSSHDATIHQLAKIIKDKWPEYYIPTKFPGIDEELPIVSFSSKKLIDTGFEFKYNLEDMFKGAIDTCREKGLLPYSTIKNHINGNHVNGVHHYIKNNDDDHEKGLLCCSKEGQ
B2: N134L: DFR that has leucine instead of aspargine at the 134th position of Gerbera DFR (SEQ ID NO 4) (protein)
chain: B1 chain with N134L
B3: maize DFR: maize DFR introduced into a Petunia mutant line (Meyer et al.) (protein, UniProt P51108 1-357, looked up)
Dihydroflavonol 4-reductase: MERGAGASEKGTVLVTGASGFVGSWLVMKLLQAGYTVRATVRDPANVGKTKPLMDLPGATERLSIWKADLAEEGSFHDAIRGCTGVFHVATPMDFLSKDPENEVIKPTVEGMISIMRACKEAGTVRRIVFTSSAGTVNLEERQRPVYDEESWTDVDFCRRVKMTGWMYFVSKTLAEKAALAYAAEHGLDLVTIIPTLVVGPFISASMPPSLITALALITGNAPHYSILKQVQLIHLDDLCDAEIFLFENPAAAGRYVCSSHDVTIHGLAAMLRDRYPEYDVPQRFPGIQDDLQPVRFSSKKLQDLGFTFRYKTLEDMFDAAIRTCQEKGLIPLATAAGGDGFASVRAPGETEATIGA

Columns and labels:
[1] = test system: WR Petunia line (dfr^−/−, F3′H^+/+); assay: TLC analysis of pigments in WR crossed lines; type: in vivo
Text: (§1) In accordance with the present invention, a DHK-specific DFR was developed by replacing asparagine at 134th amino acid residue of Gerbera DFR to leucine. […] Since the W80 Petunia line we transformed accumulates mainly DHK with small amount of DHQ and DHM, it was not clear if the N134L mutant DFR completely lost the capability of reducing DHQ and DHM. To investigate if the N134L mutant DFR produces only pelargonidin in the presence of fully active flavonoid-3′-hydroxylase (F3′H) or flavonoid-3′,5′-hydroxylase (F3′5′H), we crossed our N134L transformant with Petunia lines that are either dfr^−/−/F3′H^+/+ (WR line) or dfr^−/−/F3′5′H^+/+ (WV line). […] To determine the pigments produced in these crossed lines, we performed TLC analysis.
(§2) Gerbera DFR genes containing one amino acid point mutation were made in a similar manner as the chimeric genes. The 5′ region was synthesized using a primer having the Gerbera DFR starting methionine and a primer containing a single codon change. The 3′ region was made with a complementary primer with the single codon change and a primer having the stop codon of Gerbera DFR. The full length mutant sequence was assembled like the chimeric genes above. Each point mutant was cloned into a vector having the 35S CaMV promoter and NOS terminator. The mutagenized region of each mutant DFR was sequenced to ensure the correct residue was changed. Point mutants were then transformed into the W80 Petunia line. The transformants expressing the DFR genes were crossed with WR Petunia line (dfr^−/−, F3′H^+/+) and WV Petunia line (dfr^−/−, F3′5′H^+/+) to determine the substrate specificity of the mutated DFR. Mutations in other loci were not determined in these two Petunia lines.
(§3) Anthocyanidins were separated on cellulose TLC plates as described (Johnson, et al. Plant J. 19:81-85 (1999)). Corollas were sometimes stored at 4° C. for extended periods of time in methanol-0.5% HCl solution. Before adding iso-amylalcohol, the flower extracts were quantified at 530 nm to ensure uniform loading on the TLC plate. […]

[2] = test system: WR Petunia line (dfr^−/−, F3′H^+/+); assay: Flower colour of WR Petunia line crossed with DFR transformants; type: in vivo
Text: as §1
(§4) Gerbera DFR genes containing one amino acid point mutation were made in a similar manner as the chimeric genes. The 5′ region was synthesized using a primer having the Gerbera DFR starting methionine and a primer containing a single codon change. The 3′ region was made with a complementary primer with the single codon change and a primer having the stop codon of Gerbera DFR. The full length mutant sequence was assembled like the chimeric genes above. Each point mutant was cloned into a vector having the 35S CaMV promoter and NOS terminator. […] Mutations in other loci were not determined in these two Petunia lines.

[3] = test system: white flowered Petunia mutant (W80); type: in vivo; settings: W80 line (lacks DFR activity, accumulates primarily DHK); DFR gene under 35S CaMV promoter
[4] = test system: WV Petunia line (dfr^−/−, F3′5′H^+/+); assay: Flower colour of WV Petunia line crossed with DFR transformants; type: in vivo
Text: as §1, §4

[5] = test system: WV Petunia line (dfr^−/−, F3′5′H^+/+); assay: TLC analysis of pigments in WV crossed lines; type: in vivo
Text: as §1, §2, §3

[6] = test system: white flowered Petunia mutant (W80); assay: TLC analysis of anthocyanidins produced in transgenic W80 Petunia flowers; type: in vivo; settings: W80 line, anthocyanidins on cellulose TLC against pelargonidin, cyanidin, delphinidin standards
Text: In accordance with the present invention, the substrate specificity determining region was identified by determining the abilities of three chimeric DFRs to catalyze the reduction of DHK in the transgenic Petunia lines. In order to identify the region of DFR that determines its substrate specificity, we constructed chimeric DFR genes using cDNA sequences of Petunia (SEQ ID NO: 35) and Gerbera (SEQ ID NO; 1). […] We built three different chimeric genes using regions of high homology as common PCR primer sites (FIG. 1A). The chimeric genes were transformed into a white flowered Petunia mutant (W80) that lacks DFR activity and accumulates primarily DHK but with appreciable amounts of dihydroquercetin (DHQ) and dihydromyricetin (DHM) (Huits et at, 1994). […] The hue of Chimera 1 flowers is very similar to the inbred Petunia mutant RLO1, which has functional DFR activity and accumulates DHK. […] The identified region (approx. 40 amino acids) is highly variable in DFRs from different plant species. By excluding the completely conserved amino acid sequences at the borders, the identified region is narrowed down to 26 amino acids. Hereinafter, this region is referred as substrate specificity determining region.
Anthocyanidins were separated on cellulose TLC plates as described (Johnson, et al. Plant J. 19:81-85 (1999)). Corollas were sometimes stored at 4° C. for extended periods of time in methanol-0.5% HCl solution. Before adding iso-amylalcohol, the flower extracts were quantified at 530 nm to ensure uniform loading on the TLC plate. Anthocyanin standards were purchased from Apin Chemicals Ltd. (Oxfordshire, England).

[7] = from literature; cited from earlier work
[8] = Substrate specificity of DFR (reduction of dihydroflavonols); settings: concluded from flower colour and TLC data of WR and WV crosses
Text: as §1, §4

Molecule	pigments accumulated in crossed line (TLC) ([1]; listed as DFR^WT)	pigments accumulated in crossed line (TLC) ([1]; listed as wild type DFR)	flower color of crossed line [2]	flower color of transgenic Petunia [3]	flower color of crossed line [4]	pigments accumulated in crossed line (TLC) ([5]; listed as DFR^WT)	pigments accumulated in crossed line (TLC) ([5]; listed as wild type DFR)	pigments produced in transgenic Petunia flowers (TLC) ([6]; listed as native Gerbera DFR)	pigments produced in transgenic Petunia flowers (TLC) ([6]; listed as wild type Gebera DFR)	substrate use among DHK, DHQ and DHM [7]	substrate preference among DHK, DHQ and DHM [8]	pigments accumulated in crossed line (TLC) ([1]; listed as DFR^N134L)	pigments accumulated in crossed line (TLC) ([5]; listed as DFR^N134L)	pigments produced in transgenic Petunia flowers (TLC) [6]	pigments produced in transgenic Petunia flowers (TLC) ([6]; listed as DHK-specific DFR)
B1	mainly accumulated cyanidin	cyanidin	red colored flowers	orange/bric-red color	violet colored flowers	accumulated mainly delphinidin	delphinidin	production of appreciable amounts of cyanidin and delphinidin in addition to pelargonidin	accumulated significant amount of cyanidin and delphinidin in addition to perlargonidin	able to catalyze dihydrokaempferol (DHK)					
B2			orange colored flowers	slightly different colored flowers	white flowers						preferentially utilizes DHK as a substrate over DHQ and cannot reduce DHM	accumulated pelargonidin and cyanidin; also recorded: accumulated a large amount of pelargonidin	did not accumulated any pigment other than background level of delphinidin; also recorded: no appreciable amounts of anthocyanidins accumulated other than a background level of delphinidin	accumulated mostly pelargonidin	production of only pelargonidin
B3										can convert all three dihydroflavonols to their leucocyanidins					

Reference: patent US6555734B2, “Genetic sequences encoding substrate-specific dihydroflavonol 4-reductase and uses therefor” (Korea Kumho Petrochemical Co., Ltd., priority 2000, dated 2003)
